In the experiment the target is Myc-N1. Put plainly: co-immunoprecipitation (IP with Myc antibody), quantification of western blot bands. Particulars: HEK293 cells, more than 3 independent experiments, read off a plot.

For Fam65b-GFP (from UniProt Q80U16) RL/AA, the response (relative intensity) came to 0.47 (control (without HA-RhoC), parent: est. 1.0) and 0.2 (with HA-RhoC co-expressed, parent: est. 1.7).
